For the test, the target named is T1, recombinant protein TCRVB 6-5 (human, biotinylated (captured on a Biotin CAP chip); site not stated).
T1 construct: also called TCRVβ 6-5; TCRβ V6-5*01
T1 TCR beta: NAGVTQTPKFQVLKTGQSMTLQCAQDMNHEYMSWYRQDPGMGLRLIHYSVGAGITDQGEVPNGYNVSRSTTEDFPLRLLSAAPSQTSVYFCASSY
Description: SPR-type chip assay; TCRVB 6-5 captured on Biotin CAP Series S chip, construct as analyte, 1:1 binding model, 25C. On the procedure: TCRVB 6-5 at 5 ug/mL was immobilized on a Biotin CAP Series S Sensor Chip to 60 RU. A-H.52 was diluted to 50 nM and then serially diluted two fold Association was 120 seconds, dissociation was 300 seconds. This assay was run in 1×HBS-EP+ Buffer pH 7.4 and 25C. The data was fit using a 1:1 binding model. A-H.52 is a phage clones and is a monovalent scFv. A-H.52 has two mutations on CDRH1.
TCRVB 6-5 at 5 ug/mL was immobilized on a Biotin CAP Series S Sensor Chip to 60 RU. A-H.53 was diluted to 50 nM and then serially diluted two fold. Association was 120 seconds, dissociation was 300 seconds. This assay was run in 1×HBS-EP+ Buffer pH 7.4 and 25C. The data was fit using a 1:1 binding model. A-H.53 (phage clone) affinity is in the pM range (Table 17).
TCRVB 6-5 at 5 ug/mL was immobilized on a Biotin CAP Series S Sensor Chip to 60 RU. A-H.54 was diluted to 50 nM and then serially diluted two fold. Association was 120 seconds, dissociation was 300 seconds. This assay was run in 1×HBS-EP+ Buffer pH 7.4 and 25C. The data was fit using a 1:1 binding model.

Changes are numbered by the printed parent chain.

B1: BJM0277 (antibody, V domains shown)
VH: QVQLVQSGAEVKKPGSSVKVSCKASGYSFTTYYIHWVRQAPGQGLEWMGWFFPGSGNIKYNEKFKGRVTITADTSTSTAYMELSSLRSEDTAVYYCAGSYYSYDVLDYWGQGTTVTVSS
VL: DIQMTQSPSFLSASVGDRVTITCKASQNVGINVVWHQQKPGKAPKALIYSSSHRYSGVPSRFSGSGSGTEFTLTISSLQPEDFATYFCQQFKSYPLTFGQGTKLEIKR
One may read the Kd as the concentration at which binding is half-saturated. Take B1: the Kd came out at 35 nM.

B2: A-H.52 (scFv)
scFv: QVQLVQSGAEVKKPGSSVKVSCKASGYSFTLGYIHWVRQAPGQGLEWMGWFFPGSGNIKYNEKFKGRVTITADTSTSTAYMELSSLRSEDTAVYYCAGSYYSYDVLDYWGQGTTVTVSSGGGGSGGGGSGGGGSGGGGSDIQMTQSPSFLSASVGDRVTITCKASQNVGINVVWHQQKPGKAPKALIYSSSHRYSGVPSRFSGSGSGTEFTLTISSLQPEDFATYFCQQFKSYPLTFGQGTKLEIK
notes: Phage clone, stated to be a monovalent scFv with two mutations in CDRH1; also called Antibody A-H.52
Turning to B2, the Kd amounted to 1.76 nM.

B3: A-H.53 (scFv)
scFv: B2 scFv with T30R, G32T
notes: Phage clone; also called Antibody A-H.53
Turning to B3, the Kd turned out to be 0.165 nM.

B4: A-H.54 (scFv)
scFv: B2 scFv with T30H, L31N, G32W
notes: Phage clone; also called Antibody A-H.54
On to B4, for which the Kd was found to be 2.22 nM.

(Values after patent publication US20250297007A1 (published 2025).)
